In US20190022244A1 (BIOASIS TECHNOLOGIES, published 2019):

Target: T1, human N-acetylated-alpha-linked acidic dipeptidase-like protein 2 (NAALADL2) (human, UniProt Q58DX5 1-795)
T1 construct: also called human NAALADL2 receptor; NAALADL2 polypeptide
T1 sequence: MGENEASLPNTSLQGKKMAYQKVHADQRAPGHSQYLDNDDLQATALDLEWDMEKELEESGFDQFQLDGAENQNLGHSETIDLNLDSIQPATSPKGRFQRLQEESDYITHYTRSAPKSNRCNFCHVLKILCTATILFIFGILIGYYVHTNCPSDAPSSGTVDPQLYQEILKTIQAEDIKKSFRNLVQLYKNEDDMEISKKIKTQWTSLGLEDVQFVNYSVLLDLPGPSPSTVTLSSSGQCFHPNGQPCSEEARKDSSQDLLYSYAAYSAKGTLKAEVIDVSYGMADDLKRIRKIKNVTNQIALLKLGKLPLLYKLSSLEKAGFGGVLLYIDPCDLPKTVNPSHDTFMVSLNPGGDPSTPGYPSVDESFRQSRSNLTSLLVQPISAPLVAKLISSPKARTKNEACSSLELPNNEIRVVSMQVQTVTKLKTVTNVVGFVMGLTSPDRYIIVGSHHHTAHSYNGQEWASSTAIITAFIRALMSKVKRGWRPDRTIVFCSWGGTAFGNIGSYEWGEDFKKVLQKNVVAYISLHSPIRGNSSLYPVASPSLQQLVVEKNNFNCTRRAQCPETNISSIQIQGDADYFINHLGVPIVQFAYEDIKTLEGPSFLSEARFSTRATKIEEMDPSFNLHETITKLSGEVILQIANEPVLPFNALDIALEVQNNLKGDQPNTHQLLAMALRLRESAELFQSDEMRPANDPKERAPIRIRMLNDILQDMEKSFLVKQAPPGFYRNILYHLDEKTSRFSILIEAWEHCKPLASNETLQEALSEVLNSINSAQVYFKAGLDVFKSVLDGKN
Experiment: EGS cross-linking on U87 cells, then reciprocal immunoprecipitation (anti-MTf L235 or anti-NAALADL2 N18+L18) and immunoblot with the complementary antibody
Method: Cells were pulsed with 1 μl of 7.1 mg/ml a human melanotransferrin (MTf) peptide ([…]; SEQ ID NO:2) and 4 μl of NTA-Fe, and shaken gently at 4° C. for 20 minutes to allow binding. The supernatant was discarded and the cells were washed 2× with 5 ml of PBS at 4° C. Cross-linker solution (6 ml of 3.7 mM EGS; Thermo Scientific, Cat #87786) was added to each flask, and the cells were shaken gently at 4° C. for 2 hours.
The supernatant was discarded, and 2 ml of RIPA buffer with 1X HALT protease inhibitor cocktail was added to lyse the cells and quench the cross-linker. The cells were shaken vigorously at room temperature for 5 minutes, and a cell scraper was used to lyse and completely detach the cell lysate from the plate.

B1: human melanotransferrin (MTf) peptide (DSSHAFTLDELR; SEQ ID NO:2) (peptide)
peptide: DSSHAFTLDELR
notes: 12-residue fragment of human melanotransferrin (p97); It was pulsed onto U87 cells together with NTA-Fe; also called human MTf peptide; human MTf polypeptide
B1: binds.
